Experimental data taken from patent publication US20240261423A1 (Pfizer, published 2024).
Positions count from the first letter of the chain named. Names and notes keep the numbering of the source.

B1: EDB-(K94R)-vc-0101 (antibody, human IgG1, kappa)
heavy: not shown
light: EIVLTQSPGTLSLSPGERATLSCRASQSVSSSFLAWYQQKPGQAPRLLIYYASSRATGIPDRFSGSGSGTDFTLTISRLEPEDFAVYYCQQTGRIPPTFGQGTKVEIKRTVAAPSVFIFPPSDEQLKSGTASVVCLLNNFYPREAKVQWKVDNALQSGNSQESVTEQDSKDSTYSLSSTLTLSKADYEKHKVYACEVTHQGLSSPVTKSFNRGEC
modifications: vc-0101 linker-payload on cysteine residues (conventional conjugation, Method A); vc-0101 linker-payload on cysteine residues (conventional conjugation, Method A); average DAR 3.7 (LC/MS)
B2: EDB-(κK183C-K94R-K290C)-vc-0101 (antibody, human IgG1, kappa)
heavy: not shown
light: B1 light with K184C
modifications: vc-0101 linker-payload on engineered Cys 183 (κK183C, Kabat), Method B; vc-0101 linker-payload on engineered Cys 290 (K290C, EU index), Method B; average DAR 3.8 (LC/MS)

Molecular target: EDB+FN (fibronectin containing the extra-domain B) on WI38-VA13 cells (human, UniProt P02751 32-2477)
Test: cell-based or functional assay

EDB+FN (fibronectin containing the extra-domain B) on WI38-VA13 cells, sequence (P02751 32-2477 limits assumed, form in doubt): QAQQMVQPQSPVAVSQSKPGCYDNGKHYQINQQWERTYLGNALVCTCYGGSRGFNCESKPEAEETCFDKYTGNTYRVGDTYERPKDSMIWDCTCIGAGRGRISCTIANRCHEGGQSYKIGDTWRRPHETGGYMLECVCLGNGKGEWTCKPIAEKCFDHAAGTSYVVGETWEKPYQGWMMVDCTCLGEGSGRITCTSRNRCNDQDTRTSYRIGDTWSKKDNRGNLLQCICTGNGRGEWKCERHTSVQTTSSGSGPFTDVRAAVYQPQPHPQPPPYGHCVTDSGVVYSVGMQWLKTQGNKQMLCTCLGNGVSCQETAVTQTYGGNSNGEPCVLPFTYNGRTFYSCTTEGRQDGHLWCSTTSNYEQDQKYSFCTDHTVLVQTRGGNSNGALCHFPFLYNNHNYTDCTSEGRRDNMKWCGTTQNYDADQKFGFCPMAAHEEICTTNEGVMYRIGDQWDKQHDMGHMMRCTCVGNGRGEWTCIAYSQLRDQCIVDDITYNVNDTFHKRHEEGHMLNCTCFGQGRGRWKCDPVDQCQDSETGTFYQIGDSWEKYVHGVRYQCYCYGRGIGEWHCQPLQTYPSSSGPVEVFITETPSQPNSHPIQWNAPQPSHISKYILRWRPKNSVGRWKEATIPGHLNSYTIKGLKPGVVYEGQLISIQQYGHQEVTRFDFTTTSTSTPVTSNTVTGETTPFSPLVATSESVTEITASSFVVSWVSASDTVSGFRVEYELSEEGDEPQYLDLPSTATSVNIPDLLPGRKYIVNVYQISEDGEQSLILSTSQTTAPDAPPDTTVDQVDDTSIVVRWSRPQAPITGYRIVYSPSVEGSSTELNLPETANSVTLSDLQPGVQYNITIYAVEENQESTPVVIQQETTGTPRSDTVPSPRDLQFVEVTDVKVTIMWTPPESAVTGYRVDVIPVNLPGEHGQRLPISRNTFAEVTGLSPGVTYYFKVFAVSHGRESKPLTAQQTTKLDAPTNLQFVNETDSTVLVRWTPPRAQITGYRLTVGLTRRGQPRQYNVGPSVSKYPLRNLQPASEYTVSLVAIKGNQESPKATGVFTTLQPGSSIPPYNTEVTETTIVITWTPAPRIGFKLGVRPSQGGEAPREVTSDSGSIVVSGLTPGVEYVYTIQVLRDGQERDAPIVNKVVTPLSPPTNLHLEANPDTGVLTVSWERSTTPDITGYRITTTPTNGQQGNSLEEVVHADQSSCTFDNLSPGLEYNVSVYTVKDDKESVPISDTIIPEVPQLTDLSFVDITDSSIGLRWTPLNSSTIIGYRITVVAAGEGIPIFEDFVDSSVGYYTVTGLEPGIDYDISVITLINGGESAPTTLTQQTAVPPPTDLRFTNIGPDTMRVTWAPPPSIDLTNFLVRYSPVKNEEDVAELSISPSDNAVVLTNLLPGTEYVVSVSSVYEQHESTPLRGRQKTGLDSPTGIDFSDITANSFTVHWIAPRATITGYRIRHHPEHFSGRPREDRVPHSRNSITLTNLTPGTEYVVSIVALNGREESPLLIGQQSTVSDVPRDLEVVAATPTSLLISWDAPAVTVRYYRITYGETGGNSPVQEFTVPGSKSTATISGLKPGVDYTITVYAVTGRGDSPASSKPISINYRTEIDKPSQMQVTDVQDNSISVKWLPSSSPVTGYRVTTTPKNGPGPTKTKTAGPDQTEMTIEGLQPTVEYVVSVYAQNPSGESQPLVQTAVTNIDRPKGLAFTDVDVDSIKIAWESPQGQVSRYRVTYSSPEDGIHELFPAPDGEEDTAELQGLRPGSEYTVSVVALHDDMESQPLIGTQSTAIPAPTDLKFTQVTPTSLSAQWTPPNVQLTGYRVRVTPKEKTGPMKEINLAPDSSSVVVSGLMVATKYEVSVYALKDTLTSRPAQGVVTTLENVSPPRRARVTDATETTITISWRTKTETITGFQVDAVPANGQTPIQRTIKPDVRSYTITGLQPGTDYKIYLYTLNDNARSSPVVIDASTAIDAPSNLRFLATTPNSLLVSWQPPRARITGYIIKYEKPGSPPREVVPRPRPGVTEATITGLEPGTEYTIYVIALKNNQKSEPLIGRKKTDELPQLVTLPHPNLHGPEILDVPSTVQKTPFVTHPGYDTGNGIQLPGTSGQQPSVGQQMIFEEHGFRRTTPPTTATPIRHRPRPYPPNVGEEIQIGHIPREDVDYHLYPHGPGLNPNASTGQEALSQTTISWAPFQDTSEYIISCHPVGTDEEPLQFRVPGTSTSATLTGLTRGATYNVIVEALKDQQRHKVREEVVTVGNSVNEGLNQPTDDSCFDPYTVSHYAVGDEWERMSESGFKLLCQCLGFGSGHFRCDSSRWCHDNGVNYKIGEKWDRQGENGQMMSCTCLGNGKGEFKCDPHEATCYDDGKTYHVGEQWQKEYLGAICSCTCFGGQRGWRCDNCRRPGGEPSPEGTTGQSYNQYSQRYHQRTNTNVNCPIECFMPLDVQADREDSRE

Binder	Avg IC50, in vitro cytotoxicity on WI38-VA13 cells (Cell Titer Glo, 4 days)
B1	184 ng/ml of antibody
B2	216 ng/ml of antibody
